Data taken from the supplement of paper PMC9942255.
“And” between values parts separate entries of the source, which are not always exact repeats. Identical values can stand only once.

Test system: Bacillus subtilis DB104 (SP-AmyQ fusion secretion)
Assay: AmyQ secretion efficiency, weighted average sort bin (1 = best secretion, 10 = worst) (bin number (weighted average, 1-10)); higher = lower secretion efficiency
Method in brief: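 The secretion score gives the average bin number weighted by read frequency and normalised to beads per bin, with low-abundance sequences excluded. Bins were 10 equally populated green/red fluorescence ratio fractions of occupied ~65 nL alginate beads, sorted by large-particle flow cytometry. The beads held fluorescein-starch and about 0.3 cells each of an amyE-integrated B. subtilis DB104 library fusing designed signal peptides to mature AmyQ, and they were grown about 13 h at room temperature and stained with nile red before sorting and Illumina sequencing.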

| Sequence | AmyQ secretion efficiency |
| --- | --- |
| MRKWYFILLAGVLTSVILAFVYDKTKYNEE | 4.09 |
| MRPVFPIMNNILLILSAVLFLSCFFGARQTEASASKR | 1.84 |
| MKKWMITIAMSYTSTKRYFVFISPLKSHKT | 7.55 |
| MKRIRIPMTLALGAALTIAPLVLTVFAALSSFASAEEN | 6.39 |
| MRKFLLAAALGISLLASSNFIKASND | 4.88 |
| MKRLFMKSSKRLFAVVFVFAVKGAPAKAETH | 7.81 |
| MRMLWRSLALCGLALTLAPCWQAAEP | 5.47 |
| MPIKKKVMMCLAVTLVFGSMSFPTLTNDGGFKE | 5.45 |
| MHLIRAAGAVCLAVVLIAGCRFNEDQHQAEWENT | 6.12 |
| MKVLLSALLLLLFAFFEPSASGKKL | 6.51 |
| MKVPKTMLLSTAAGLLLSLTVSAHYV | 5.02 |
| MKKQIITATTAVVGAASAQSI | 7.59 |
| MKRTWNVCLTALLSVLLVAPFHAEAKKP | 4.3 |
| MRGKSAVLLSLIMLIAGFLINFSFQM | 6.91 |
| MLKKKWMVGLLAGCLAAGGFSYNAFETEN | 6.72 |
| MKVPKTMLLSTAAGLLLSLTATSVSWHYV | 4.99 |
| MKSKWMSGLLLVAVGFSFTQVMVHAGDE | 5.94 |
| MLKKKWMVGLLAGCLAAGGFSYNLFATEN | 5.92 |
| MKKLLAAGIIGLLTVSIASPSFTAEK | 6.63 |
| MKSKGSIMACLILFSFTITTFINTETISPFSN | 7.51 |
| MKSCKQLIVCSLAAILLLIPSVAFAADS | 2.83 |
| MTMLRKIRRKKLLLCIIPLFAFTVIASGKEV | 6.88 |
| MIVIILLFISIIVFLSVIQPQPS | 8.27 and 5.9 and 6.5 |
| MKKWMITIAMLILAGIALFVFISPRKSHKT | 4.44 |

| Sequence | AmyQ secretion efficiency |
| --- | --- |
| MKKKQVMLALTAAAGLGLTALHSAPAPKAAPL | 6.78 |
| MRKSLITLGLASVIGTSSFLIPFTSKTHSAETL | 6.74 |
| MKKWMAGLFLAAAVLLCLMVPQQCQGASS | 2.09 |
| MKRIRIPMTLALGAALTIAPLSFPSAEEN | 6.68 |
| MTTGLLASLVLCLSLSPLVSTNEVFAATT | 4.99 |
| MLKKIALTLCPAIVGSLLFFTAPQSAHVS | 5.63 |
| MKRFSTAYLLLGILCSAAVFLIGAPSRALGADD | 3.2 |
| MRRKKRKVVGFLSVLGLAAVFPLTAQAEKA | 2.12 |
| MKLKSKLLLSCLALSTVFVATTIANSPTH | 3.78 |
| MNLRKTYSGRGYSLGMLVSAAPVLATSS | 6.74 |
| MKKAFILSAAAAVGLFTFGGVQQFSAKEL | 5.1 |
| MFKKHSRSLLIIFLLASAVLAKPIEAHTV | 4.1 |
| MKRWMRKTLVVLFTIVTFGLVSPPAALMADKP | 2.03 |
| MKWMCSICCAAVLLAGGADQAEAV | 2.46 |
| MGSTSFILWISLLFALTLIFTMAFSNMSAQAAGK | 6.79 |
| MKKLLAAGIIGLLTVSIASPSFAADD | 2.83 |
| MKRSIRTGTYCLLITLLTMGGMIASPASAAGT | 3.22 |
| MMFMFLLCVMMLLFSAIASFPVSAQAKDQ | 6.02 |
| MTKKAWFLPLVCVLLISGWLAPAASASKQTT | 2.02 |
| MKKRLIAPMLLSAASLAFFARRKRKKAQAAAY | 7.44 |
| MRPVFPLKKRRVLFLSCFFGARQTEASASKR | 7.34 |
| MHLIRAAGAVCLAVVLIAGCRFNEDQHQAEDENT | 5.99 |
| MGLGKKLSVAVAASFMSLSISLPGVQAAED | 2.84 |
| MKVLLSALLLLLFAEEDSASGKKL | 6.1 |

| Sequence | AmyQ secretion efficiency |
| --- | --- |
| MLKKKWMVGLLAGCLAAGGFSYNSPPFFFGAAFATEN | 5.86 |
| MRPVFPLRRRRRRFLSCFFGARQTEASASKR | 7.47 |
| MKKAFILSAAAAVGLFTFSIGGVQQASAKEL | 3.67 |
| MKKRITYSGSQLLAVVAFAFTDSSKAKAAEA | 8.92 |
| MKLSVKIAGVLTVAAAAMTAKMYATKKGN | 8.52 |
| MMIKQCTICLSLLVFGTTAAHAEET | 2.71 |
| MRKKRVITCVMAASLTLGSLLPAGYATADDE | 4.08 |
| MRKYTVIASILLSFLSVLKKKKHHKSKAFPV | 7.85 |
| MIKLVLCVSILAVILSGVALTQLS | 7.36 |
| MKLWMRKTLVVLFTIVTFGLVSPPAAIMADKP | 1.63 |
| MPYLKRVLLLLVTGLFMSLFAVTATESAQTG | 4.4 |
| MKVCQKSIKRFLVSLIIGTFVISVPFMANAQSD | 1.93 |
| MKRLFMKASLVLFAVVFVFAVKGAPKAKAETH | 1.9 |
| MKKCKRRKTTIALILSLSTNAFAKNT | 7.38 |
| MLKKKWMVGLLAGCLAAGSAGFSYNAFATEN | 4.95 |
| MKRLTLVCSIVFILFILFYDLKIGTDEASAKTA | 4.35 |
| MFKKHTISLLIIFLLASAVLAKPGEAHTV | 2.82 |
| MAIIIAIIAAVIVIAALITFNVQNASPG | 7.71 |
| MKSCKQLRRCKRRRILLLIPSVSFAADS | 7.57 |
| MKLWMRKTLVVLFTIVTFGLVSPPAALMSDKP | 3.94 |
| MLCVMMLLFSAIASFPVSCQAKDQ | 5.97 |
| MLCVMMLLFSAIASFPVSAQSKDQ | 5.6 |
| MKKKTLSLFVGLMLLIGLLFSGSLPYNPNAAEASSS [wt_amyM] | 3.81 |
| MKRITINIITMFIAAAVISLTGTAEAAPK | 2.12 |

| Sequence | AmyQ secretion efficiency |
| --- | --- |
| MRPVFPYTLSAVLFLSCFFGARQTEASASKR | 2.08 |
| MKRLLVSLRVWMVFLMNWVTRKRRKKAAAAVY | 5.91 |
| MKTLRTKCRKKILSGVIFFGLKIDAKDI | 6.97 |
| MKKQIITATTAVVLGSTLFAGAAAVASAQSI | 3.9 |
| MKLSVKIAGVLTVAAAAMVAIMGATAKGN | 8.27 |
| MFKKHTISLLIIFLLASAVLAKPTEAHTV | 2.68 |
| MTMLRKIIGWILLLCIIPLFAFTVICSGKEV | 7.14 |
| MIAYFGKCLLLVTIMFLGVLFGMPQANHG | 5 |
| MKRFSTAYLKKRKLCSAAVFLIGAPSRALGAEV | 6.51 |
| MKKVMLATALFLGLTFTTFAPAGANAADL | 2.89 |
| MKKVLMAFIICLSLILSGLAAPPSGAKAESV | 2.28 |
| MRNLTKTSLLLAGLCTAAQMVFVTHTSAEES | 3.23 |
| MKRFSTAYLLLGILCSAAVFLIGAPSRALGDED | 6.23 |
| MFKFKKNFLVGLSAALMSIKQFSATASAAST | 5.73 |
| MKKRFSLRRRKRKLFGLTSPAFAAEK | 7.37 |
| MKKRITYSLLALLAVVATDSSKAKAAEA | 2.87 |
| MKRLLSTLLIGIMLLKRKRRRAFAKQD | 8.09 |
| MLCVMMLLFSAIASFPVSAQHKDQ | 5.96 |
| MRSYIKVLTMCFLGLILFVPTCLADNS | 2.04 |
| MRSYIKVLTMCFLGLILFVFTALADNS | 7.29 |
| MGLGKKLSVAVAASFMSLSISLPGVQYAEG | 4.06 |
| MKKRLIAPMLLSAASLAFFAMSGSAQYAAY | 6.56 |
| MKSKWMSGLLLVAVGFSFTQVMVHAGRR | 7.76 |
